From publication PMC6949242 come the findings set out here.

The target of data set [1] is FOXO1 DNA-binding domain;ETS1 R409A R409A (UniProt Q12778+P14921). Put plainly: ITC. The conditions noted are these: FOXO1 titrated into equimolar ETS1 R409A + DNA; Kd of FOXO1; 50 mM Bis-Tris, 150 mM NaCl, pH 6.5; ITC at 25 °C; NMR 1H-15N HSQC with 100 uM FOXO1.
Data set [2] addresses FOXO1 DNA-binding domain;ETS1 Y410A Y410A (UniProt Q12778+P14921). Briefly: ITC. To be noted: FOXO1 titrated into equimolar ETS1 Y410A + DNA; Kd of FOXO1; 50 mM Bis-Tris, 150 mM NaCl, pH 6.5; ITC at 25 °C; NMR 1H-15N HSQC with 100 uM FOXO1.
Data set [3] concerns the target FOXO1 DNA-binding domain;ETS1 DNA-binding domain (UniProt Q12778+P14921). Briefly: ITC. The conditions noted are these: FOXO1 titrated into equimolar ETS1 + DNA; Kd of FOXO1; 50 mM Bis-Tris, 150 mM NaCl, pH 6.5; ITC at 25 °C; NMR 1H-15N HSQC with 100 uM FOXO1.
The target of data set [4] is FOXO1 DNA-binding domain (UniProt Q12778). Put plainly: ITC. To be noted: FOXO1 alone; 50 mM Bis-Tris, 150 mM NaCl, pH 6.5; ITC at 25 °C; NMR 1H-15N HSQC with 100 uM FOXO1.
Data set [5] addresses FOXO1 DNA-binding domain;ETS1 R409H R409H (UniProt Q12778+P14921). Briefly: ITC. The conditions noted are these: FOXO1 titrated into equimolar ETS1 R409H + DNA; Kd of FOXO1; 50 mM Bis-Tris, 150 mM NaCl, pH 6.5; ITC at 25 °C; NMR 1H-15N HSQC with 100 uM FOXO1.
In data set [6] the target is FOXO1 DNA-binding domain (UniProt Q12778). Briefly: NMR. The conditions noted are these: FOXO1 alone, 50 mM Bis-Tris, 150 mM NaCl, pH 6.5, ITC at 25 °C, NMR 1H-15N HSQC with 100 uM FOXO1.

The term Kd denotes a measure of binding affinity in units of concentration.

With AAAACAACAGGAAGTATTT (double strand) [ω], the Kd was 151 nM in data set [1]; 313 nM in data set [2]; 44 nM in data set [3]; 352 nM with FOXO1 DNA-binding domain [4]; 67 nM in data set [5].

As for “CTGTAAACAGGAAGTGGAG (double strand) [ω-none]”, the Kd in data set [3] is 26 nM; in the data set with FOXO1 DNA-binding domain [4], 24 nM.

Take “TGACGCACCGGAAGTTAGG (double strand) [ω-high]”: the Kd with FOXO1 DNA-binding domain [6] (fit of residue G161 peak) turned out to be 122 µM; with FOXO1 DNA-binding domain [6] (mean of selected peaks, fast exchange) it was 167 µM.
